Experimental data: patent US20240101708A1 (Genentech, published 2024)
Where a chain is given by its changes, count along the chain named.

B1: RNF43-6 (antibody, V domains shown)
VH: QSLEESGGRLVTPGTPLTLTCTVSGFSLSAFGMNWVRQAPGKGLEWIGYISAGGSAVYPNWAEGRFTISKASTTVTLKMTSLTTEDTATYFCVRGGYVGSTNSLWGPGTLVTVSS
VL: AAVLTQTPSPVSAAVGGTVSISCQSSKSVHNNNWLAWYQQKPGQPPKLLIYGASTLASGVPSRFKGSGSGTQFTLTISDVQCDDAATYYCSGGYSSIIDNGFGGGTDVVVE
notes: Rabbit clone; VH/VL only
B2: RNF43-16 (antibody, V domains shown)
VH: QSVEESGGRLVTPGTPLTLTCTVSGFFLSSYYMSWVRQAPGKGLEWIGYIYAGSGSTYYASWAKGRFTISKTSTTVDLKITSPTTEDTATYFCVRDINGGDYGMDPWGPGTLVTVSS
VL: DIVMTQTPASVSAAVGGTVTIKCQASESIDSGLAWYQQKPGQRPKLLIYAASNLASGVSSRFKGSGSGTEYSLTISGVQCDDAATYYCQCTYGSVTSNTYGIAFGGGTEVVVK
notes: Rabbit clone; VH/VL only
B3: RNF43-15 (antibody, V domains shown)
VH: QEQLEESGGDLVKPGASLTLTCTASRFSFSNDDVICWVRQAPGKGLEWIGCIATINGNTAYATWAKGRFTSSKTSSTTVTLQMTRLTAADTATYFCARWDTGSEHVTLWGPGTLVTVSS
VL: AYDMTQTPASVEVAVGGTVTIKCQASQSISSYLAWYQQKPGQPPKPLIYEASKLASGVPSRFSGSGSGTQFTLTISGVQCADAATYYCQQGASWSNVDNVFGGGTEVVVK
notes: Rabbit clone; VH/VL only
B4: RNF43-69 (antibody, V domains shown)
VH: EVQLVESGGGLVQPGRSLKLSCAASGFTFSDYYMAWVRQAPKKGLEWVASITYEGSSTYYGDSVKGRFTISRDNAKSTLYLQMNSLRSEDTATFYCARHLDYGYDYAWYFDFWGPGTMVTVSS
VL: DIVLTQSPTTLSVTPGETVSLSCRTSHSIGTNLHWYQQKTNESPRLLIKYASQSISGIPSRFSASGSGTDFTLNINNVEFDDVSSYFCQQTQSWPLTFGSGTKLEIK
notes: Rat clone; VH/VL only
B5: RNF43-75 (antibody, V domains shown)
VH: B4 VH with Y32H, Y109S
VL: B4 VL with T9I, T10I, K49N, D81E, S84A, F87Y, S93R
notes: Rat clone; VH/VL only
B6: RNF43-21 (antibody, V domains shown)
VH: QSLEESGGDLVKPGASLTLTCTASGFSFSSSYYMCWVRQAPGKGLEWIACIYAGSSGSTYYASWAKGRFTVSKTSSTTVTLQMTSLTAADTATYFCARYTYGSGSDSYFNLWGPGTLVTVSS
VL: AYDMTQTPASVEAAVGGTVTIQCQASQSIGSYLAWYQQKPGQPPKLLIYRASTLSSGVPSRFKGSGSGTQFTLTISDLECADAATYYCQQGYSITNLDNGFGGGTEVVVK
notes: Rabbit clone; VH/VL only
B7: RNF43-14 (antibody, V domains shown)
VH: QSVEESGGRLVTPGTPLTLTCTVSGIDLSSYAMGWVRQAPGKGLEYIGFIYASGSTYYASWAKGRFTISKTSTTVDLKITSPTTEDTATYFCARDSSETINYFNIWGPGTLVTVSL
VL: NIVMTQTPSPVSGAVGGTVTIKCQASQSISNWLAWYQQKPGQPPKVLIYRASTLASGVSSRFKGSGSGTEFTLTISDLECADAATYYCQQGYYISYLDNAFGGGTEVVVK
notes: Rabbit clone; VH/VL only
B8: RNF43-201 (antibody, V domains shown)
VH: QVTLKEYGPGILQPSQTLSLTCTFSGFSLRTYGMGVGWIRQPSGKGLEWLTNIWWDDDKYYNPSLKNRLTISKDTSNNQAFLKITNVDTEDSATYYCARIDGTFNYFDYWGQGVMVTVSS
VL: DVVLTQTPSRLSATIGQSVSISCRSSQSLLDSDGNTYLYWFLQRPGQSPQRLIYLVSNLGSGVPNRVSGSGSGTDFTLKISGVEAEDLGIYYCLQATHAPLTFGSGTKLEIK
notes: Rat clone; VH/VL only
B9: RNF43-11 (antibody, V domains shown)
VH: QEQLVESGGGLVQPEGSLTLTCKASGFDFSSNVMCWVRQAPGKGLEWIGCIYTGSSGSTYYASWAKGRFTITRSTSLNTVTLQMTSLTAADTATYFCARYVSGGEYYNLWGPGTLVTVSS
VL: ALVMTQTPASVEAAVGGTVTINCQASESISNWLAWYQQKPGQPPKLLIYKASTLASGVSSRFKGSGSGTQFTLTISDLECADAATYYCQQGSSWINIEDVFGGGTEVVVK
notes: Rabbit clone; VH/VL only
B10: RNF43-5 (antibody, V domains shown)
VH: QSVEESGGRLVTPGTPLTLTCTVSGFSLNTYAMGWVRQAPGKGLEWIGTIGSSGSTYYATWAKGRFTVSKTSTTVDLKITSPTTEDTATYFCVRGADGLNYYPIWGPGTLVTVSL
VL: AQVLTQTPSSVSAAVGGTVTINCQASQSVYNNKNLAWYQQKPGQPPKLLIYDASDLASGVSSRFKGSGSGTQFTLTISGVQCDDAATYYCQGEFNCDKGDCNAFGGGTEVVVK
notes: Rabbit clone; VH/VL only
B11: RNF43-9 (antibody, V domains shown)
VH: QSLEESGGDLVQPEGSLTLTCTASGFSFSSSCYMCWVRQAPGKGLEWIACINTGSSGSTYYASWAKGRFTISKTSSTTVTLQMTILTAADTATYFCARGYAGYTGYGQFNLWGPGTLVTVSS
VL: QIVMTQTPASVEAAVGGTVTIKCQASQSISNYLAWYQQKPGQRPKLLIYDASKLASGVPSRFKGSGSGTQFTLTISGVECADAATYYCQQGYTMNNVDNAFGGGTEVVVK
notes: Rabbit clone; VH/VL only
B12: RNF43-22 (antibody, V domains shown)
VH: QEQLEESGGDLVKPGASLTLTCTASGFSVSNSYYMCWVRQAPGKGLEWIACINTGSSGSTYYASWAKGRFTISKTSSTTVTLQMTTLTAADTATYFCARGYAGYAGYGQFNLWGPGTLVTVSS
VL: B3 VL with P43R, P46V, E50D, A51V, S63K, Q79E, A92Y, W94M, V100T
notes: Rabbit clone; VH/VL only
B13: RNF43-13 (antibody, V domains shown)
VH: QSLEESGGGLVKPGGTLTLTCKASGIDFSGYYYMCWVRQAPGKGLEWIACIYTTSGSAWYASWAKGRFTISITTSLNTVTLQMTSLTATDTATYFCVRYANYGGYNYPEFGVLWGPGTLVTVSS
VL: AYDMTQTPASVEVAVGATVTIKCQASEDIYNLLAWYQQKPGQPPKLLIYRASKLASGVPSRFSGSGSGTEFTLTISSVQCDDAATYYCQQGYSISNVENPFGGGTEVVVK
notes: Rabbit clone; VH/VL only
B14: RNF43-33 (antibody, V domains shown)
VH: QEQLKESGPGLVQPSQTLSLTCTVSGFSLTSYNVHWVRQPPRKGLEWMGRMRYNGDTSYNSALKSRLSISRDTSKNQVFLKMNSLQTDDTGTYYCARGPLWDYWGQGVMVTVSS
VL: DVVLTQTPPTLSATIGQSVSVSCRSSQSLLHSNGNTYLNWLLQRPGQPPQLLIYLVSRLESGVPNRFSGSGSGTDFTLKISGVEAEDLGVYYCVQSTHAPYTFGAGTKLELK
notes: Rat clone; VH/VL only
B15: RNF43-106 (antibody, V domains shown)
VH: QIQLGQSGPELTKPGESVKISCKASGYTFSDYPIHWVKQAPGKGLKWMGWINTYTGKPTFADDFKGRFVFSLEASASTANLQISNLKNEDTATYFCALGPISTVFYAMDAWGQGTSVTVSS
VL: DIQMTQSPSFLSASVGDRVTINCKASQNINKYLNWYQQKLGEAPKRLIYNTNNLQTGIPSRFSGSGSGTDYTLTISSLQPEDFATYFCLQHNSFPYTFGAGTKLELK
notes: Rat clone; VH/VL only
B16: RNF43-210 (antibody, V domains shown)
VH: QIQLVQSGPELKKPEESVKISCKASGYIFTDYLIHWVKQAPGEGLKWMGWINTYTGKPTYADDFKGRFVFSLEASASTAILQISNLKNEDTATYFCALGPITTVVYVMDAWGQGTSVTVSS
VL: B15 VL with G57D, T69A, S76N
notes: Rat clone; VH/VL only
B17: RNF43-123 (antibody, V domains shown)
VH: B15 VH with G5V, T12K, S30T, I34M, F60Y, S77N, E89D, M108V
VL: B15 VL with L40V, I48M, A100P, K103E
notes: Rat clone; VH/VL only
B18: RNF43-23 (antibody, V domains shown)
VH: QEQVVESGGGLVQPEGSLTLTCKGSGFDFSGNVLCWVRQAPGKGLEWIGCIATGIGSTAYASWAKGRFTITRGTSLNTVDLKMTSLTAADTATYFCARYVSGSEYYNFWGPGTLVTVSS
VL: AYDMTQTPASVEVAVGGTVTIKCQASQSISSFLAWYQQKPGQPPMLLIYKASTLASGVPSRFKGSGSGTQFTLTISGVECADAATYYCQQGYSWNGVDNTFGGGTEVVVK
notes: Rabbit clone; VH/VL only
B19: RNF43-35 (antibody, V domains shown)
VH: QVQLKESGPGLVQPSQTLSLTCTVSGFSLTTYSVHWVRQHSGKNLEWMGRMWTAGDTSYNSAFTSRLNIFRDTSKSQVFLKMNSLQTEDTGTYYCARSSYTSGYPFDSWGQGVMVTVSS
VL: DTVLTQSPALAVSPGERVTISCRASESVSKLMHWYQQRPGQQPQLLIYLTSHLASGVPARFSGSGSGTDFTLTIDPVEADDTATYYCQQSRNDPTFGAGTKLELK
notes: Rat clone; VH/VL only
B20: RNF43-90 (antibody, V domains shown)
VH: QVQLKESGPGLVQPSQTLSLTCTVSGFSLTSYSVHWVRQHSGNRLEWMGRMWSAGDTSFNSAFTSRLNITRDTSKSQVFLKMNSLQTEDTGTYYCVRSFYNAGYPFDYWGQGVMVTVSS
VL: B19 VL with E26D, S29I, H33N, R38K, Q42R, Q44K, T50A, A79T, A98P
notes: Rat clone; VH/VL only
B21: RNF43-17 (antibody, V domains shown)
V domain 1: QSVEESGGRLVTPGTPLTLTCTGSGFSLSNYAMGWVRQAPGKGLEYIGIIYASGSTWYASWAKGRFTISKTSTTVDLKITSPATEDTATYFCCRDATTTYDRLDLWGQGTLITVSS
V domain 2: AFELTQTPSSVEAAVGGTVTIKCQASQSISKWLAWYQQKPGQPPKLLIYRASTLPSGVPSRFKGSGSGTEFTLTISGVECADAATYYCQQGYSVTNLDEAFGGGTEVVVK
notes: Rabbit clone; VH/VL only

molecular target: T1, recombinant human RNF43 extracellular domain (human, UniProt Q68DV7 24-197); assay: SPR Biacore 8K; antibody captured on Protein A; RNF43 ECD analyte; 25 C
T1 construct: extracellular domain; also called huRNF43; human RNF43 ECD
T1 sequence (looked up): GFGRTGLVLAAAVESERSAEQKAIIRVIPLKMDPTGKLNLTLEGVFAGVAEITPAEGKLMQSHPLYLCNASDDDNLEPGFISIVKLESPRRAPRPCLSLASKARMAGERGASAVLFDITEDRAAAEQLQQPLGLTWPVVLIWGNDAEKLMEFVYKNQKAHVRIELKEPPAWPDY
Description: Antibodies were screened for binding to recombinant human RNF43 and ZNRF3 ECDs using a Biacore® 8 k instrument (GE Life Sciences). Briefly, antibodies diluted to 1 μg/ml in 1×HBSP buffer (Cytiva, BR100368) were captured on a Sensor Chip Protein A (GE Life Sciences) using a flow rate of 10 μl/minute and a contact time of 60 seconds. Binding of recombinant human RNF43 and ZNRF3 extracellular domain to the captured antibodies was analyzed at 25° C. using a single cycle kinetics method with a flow rate of 30 μl/minute, a contact time of 180 seconds and a dissociation time of 600 seconds. The concentration of recombinant human RNF43 and ZNRF3 extracellular domain in the single cycle kinetics were 0, 0.8, 4, 20, and 100 nM. Between cycles, the chip was regenerated using 10 mM Glycine HCl pH 1.5 injected for 30 seconds at 30 μl/minute. Data were evaluated using Biacore 8K Evaluation software (GE Life Sciences). Kinetic constants were obtained using a 1:1 binding model with the parameter RI set to zero. Cell surface ligase antibodies with sub-nanomolar affinities may provide advantages in certain instances, for example, in the degradation efficiency which is correlated with the durability of the ternary complex as shown in FIG. 5D.

| Binder | Kd [nM] |
| --- | --- |
| B1 | 10.3 |
| B2 | 37.8 |
| B3 | 8 |
| B4 | 16.8 |
| B5 | 4.65 |
| B6 | 10.3 |
| B7 | 0.8 |
| B8 | 9.9 |
| B9 | 27.7 |
| B10 | 1.1 |
| B11 | 1.8 |
| B12 | 0.5 |
| B13 | 99.6 |
| B14 | 63 |
| B15 | 15.6 |
| B16 | 13.4 |
| B17 | 13.4 |
| B18 | 85 |
| B19 | 0.07 |
| B20 | 0.29 |
| B21 | 6.7 |
